Consider one molecule from article PMC4465127 (2015).

In the assay the target is T1, LIN-3 EGF domain EGF (Caenorhabditis elegans, UniProt Q03345).
T1 chain: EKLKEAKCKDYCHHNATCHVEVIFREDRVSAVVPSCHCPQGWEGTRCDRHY

What is called Kd is the constant that tells how readily two partners part at equilibrium.

B1: sLET-23 ECD (protein)
chain: FGNSNAQLWKRCVSPQDCLCSGTTNGISRYGTGNILEDLETMYRGCRRVYGNLEITWIEANEIKKWRESTNSTVDPKNEDSPLKSINFFDNLEEIRGSLIIYRANIQKISFPRLRVIYGDEVFHDNALYIHKNDKVHEVVMRELRVIRNGSVTIQDNPKMCYIGDKIDWKELLYDPDVQKVETTNSHQHCYQNGKSMAKCHESCNDKCWGSGDNDCQRVYRSVCPKSCSQCFYSNSTSSYECCDSACLGGCTGHGPKNCIACSKYELDGICIETCPSRKIFNHKTGRLVFNPDGRYQNGNHCVKECPPELLIENDVCVRHCSDGHHYDATKDVRECEKCRSSSCPKICTVDGHLTNETLKNLEGCEQIDGHLIIEHAFTYEQLKVLETVKIVSEYITIVQQNFYDLKFLKNLQIIEGRKLHNVRWALAIYQCDDLEELSLNSLKLIKTGAVLIMKNHRLCYVSKIDWSSIITSKGKDNKPSLAIAENRDSKLCETEQRVCDKNCNKRGCWGKEPEDCLECKTWKSVGTCVEKCDTKGFLRNQTSMKCERCSPECETCNGLGELDCLTCRHKTLYNSDFGNRMECVHDCPVSHFPTQKNVCEKCHPTCYDNGCTGPDSNLGYGGCKQCKYAVKYENDTIFCLQSSGMNNVCVENDLPNYYISTYDTEGVIETHCEKCSISCKTCSSAGRNVVQNKCVCKHVEYQPNPSERICMDQCPVNSFMVPDTNNTVCKKCHHECDQNYHCANGQSTGCQKCKNFTVFKGDIAQCVSECPKNLPFSNPANGECLDYDIASRQRKTR
In the case of B1, the dissociation constant (Kd) is roughly 3000 nM.
